Data: publication PMC13107026, “Intestinal epithelial C/EBPβ deficiency impairs colitis-associated tumorigenesis by disrupting CXCL1/CXCL2/CXCL5-CXCR2-mediated neutrophil infiltration”

B1: CXCL5 MUT probe (dsDNA)
DNA 1: CACTGTCAATTTTTATGGCAG
DNA 2: CTGCCATAAAAATTGACAGTG
B2: CXCL5 WT probe (dsDNA)
DNA 1: CACTGTCTTGCTCCATGGCAG
DNA 2: CTGCCATGGAGCAAGACAGTG
B3: CXCL2 MUT probe (dsDNA)
DNA 1: TAGAAGTGGTAGGGTCTCCTCTTACTGATA
DNA 2: TATCAGTAAGAGGAGACCCTACCACTTCTA
B4: CXCL1 MUT probe (dsDNA)
DNA 1: TGGAAACGGTCCCCACCCCT
DNA 2: AGGGGTGGGGACCGTTTCCA
B5: CXCL2 WT probe (dsDNA)
DNA 1: TAGAAGTGGTGTTTCACAACCTTACTGATA
DNA 2: TATCAGTAAGGTTGTGAAACACCACTTCTA
B6: CXCL1 WT probe (dsDNA)
DNA 1: TGGAACTTTCAAAATCCCCT
DNA 2: AGGGGATTTTGAAAGTTCCA

What was measured:
C/EBPβ [1] = molecular target: T1, C/EBPβ (Homo sapiens, UniProt P17676 1-345); assay: competition; 100-fold molar excess vs biotin CXCL5 WT probe; LightShift Chemiluminescent EMSA kit; 6% native polyacrylamide gel, 0.5x TBE, 100 V, 60 min; binding buffer, salt, pH and temperature not stated; conditions: protein: recombinant; chain copies: 2; label: unlabeled; blunt
T1 sequence (P17676 whole entry): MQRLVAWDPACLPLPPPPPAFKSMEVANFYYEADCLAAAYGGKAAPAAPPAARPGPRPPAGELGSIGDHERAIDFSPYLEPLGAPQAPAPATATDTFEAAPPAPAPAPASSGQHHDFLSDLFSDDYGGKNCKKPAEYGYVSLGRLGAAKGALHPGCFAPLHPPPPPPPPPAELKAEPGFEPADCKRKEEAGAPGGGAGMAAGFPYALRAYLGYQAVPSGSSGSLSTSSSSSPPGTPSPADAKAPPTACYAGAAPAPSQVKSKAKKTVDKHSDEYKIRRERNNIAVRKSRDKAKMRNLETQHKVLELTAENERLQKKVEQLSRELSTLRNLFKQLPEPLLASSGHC

C/EBPβ [2] = molecular target: T1, C/EBPβ; assay: EMSA, competition, supershift; LightShift Chemiluminescent EMSA kit; 6% native polyacrylamide gel, 0.5x TBE, 100 V, 60 min; binding buffer, salt, pH and temperature not stated; conditions: protein: recombinant; chain copies: 2; label: biotin (5' of both strands); blunt
C/EBPβ [3] = molecular target: T1, C/EBPβ; assay: competition; 100-fold molar excess vs biotin CXCL2 WT probe; LightShift Chemiluminescent EMSA kit; 6% native polyacrylamide gel, 0.5x TBE, 100 V, 60 min; binding buffer, salt, pH and temperature not stated; conditions: protein: recombinant; chain copies: 2; label: unlabeled; blunt
C/EBPβ [4] = molecular target: T1, C/EBPβ; assay: competition; 100-fold molar excess vs biotin CXCL1 WT probe; LightShift Chemiluminescent EMSA kit; 6% native polyacrylamide gel, 0.5x TBE, 100 V, 60 min; binding buffer, salt, pH and temperature not stated; conditions: protein: recombinant; chain copies: 2; label: unlabeled; blunt

Row | Binder | binding result (C/EBPβ [2]) | other results
1 | B1 | – | binding result (C/EBPβ [1]): no binding
2 | B2 | binds | –
3 | B3 | – | binding result (C/EBPβ [3]): no binding
4 | B4 | – | binding result (C/EBPβ [4]): no binding
5 | B5 | binds | –
6 | B6 | binds | –
